Source: publication PMC5636616, “Studies on the Interaction of the Histone Demethylase KDM5B with Tricarboxylic Acid Cycle Intermediates” (Journal of Molecular Biology, 2017)
Values joined by “and” are separate entries in the source; they are usually repeats but may differ in a detail not shown here. Equal entries are not always repeated.

Substrate: O=C(O)CCC(=O)C(=O)O
Experiment: purified protein, by the assay type
Settings: pH 7.5, 25.0 °C

B1: KDM5B (Homo sapiens) (protein)
chain: MEAATTLHPGPRPALPLGGPGPLGEFLPPPECPVFEPSWEEFADPFAFIHKIRPIAEQTGICKVRPPPDWQPPFACDVDKLHFTPRIQRLNELEAQTRVKLNFLDQIAKYWELQGSTLKIPHVERKILDLFQLNKLVAEEGGFAVVCKDRKWTKIATKMGFAPGKAVGSHIRGHYERILNPYNLFLSGDSLRCLQKPNLTTDTKDKEYKPHDIPQRQSVQPSETCPPARRAKRMRAEAMNIKIEPEETTEARTHNLRRRMGCPTPKCENEKEMKSSIKQEPIERKDYIVENEKEKPKSRSKKATNAVDLYVCLLCGSGNDEDRLLLCDGCDDSYHTFCLIPPLHDVPKGDWRCPKCLAQECSKPQEAFGFEQAARDYTLRTFGEMADAFKSDYFNMPVHMVPTELVEKEFWRLVSTIEEDVTVEYGADIASKEFGSGFPVRDGKIKLSPEEEEYLDSGWNLNNMPVMEQSVLAHITADICGMKLPWLYVGMCFSSFCWHIEDHWSYSINYLHWGEPKTWYGVPGYAAEQLENVMKKLAPELFVSQPDLLHQLVTIMNPNTLMTHEVPVYRTNQCAGEFVITFPRAYHSGFNQGFNFAEAVNFCTVDWLPLGRQCVEHYRLLHRYCVFSHDEMICKMASKADVLDVVVASTVQKDMAIMIEDEKALRETVRKLGVIDSERMDFELLPDDERQCVKCKTTCFMSAISCSCKPGLLVCLHHVKELCSCPPYKYKLRYRYTLDDLYPMMNALKLRAESYNEWALNVNEALEAKINKKKSLVSFKALIEESEMKKFPDNDLLRHLRLVTQDAEKCASVAQQLLNGKR
Km (other: 0 μM oxaloacetate): 5.0 µM
Km (other: 0 μM succinate): 3.4 µM
Km (other: KDM5B(1–822), no inhibitor, 5 μM H3K4me2(1–21)): 3 µM and 2.6 ± 0.6 µM
Km (other: Table S1, succinate data set, competitive inhibition model): 3.01 µM
Km (other: Table S2, oxaloacetate data set, competitive inhibition model): 5.91 µM
